This passage reports Km results from PMC4220974, “Effect of the L499M mutation of the ascomycetous Botrytis aclada laccase on redox potential and catalytic properties” (Acta Crystallographica Section D: Biological Crystallography, 2014).

What all share (experiment): purified protein
Common to all, as to format: biochemical, Botrytis aclada

For data set [1], the system named is CCn1c(=NN=c2sc3cc(S(=O)(=O)O)ccc3n2CC)sc2cc(S(=O)(=O)O)ccc21. The conditions noted are these: pH 4.0, 100 mM citrate-phosphate, 30 °C, air-saturated, µ and ± signs lost in the table text (header reads M), apparent Km, also measured at pH 3, 5, 6.
In data set [2] the test system is COc1cccc(OC)c1O. The conditions noted are these: pH 4.0, 100 mM citrate-phosphate, 30 °C, air-saturated, µ and ± signs lost in the table text (header reads M), apparent Km, also measured at pH 3, 5, 6.
Substrate in data set [3]: COc1cccc(OC)c1O
The conditions noted are these: pH 4.0, 100 mM citrate-phosphate, 30 °C, air-saturated, apparent Km, also measured at pH 3, 5, 6.

Substrate in data set [4]: CCn1c(=NN=c2sc3cc(S(=O)(=O)O)ccc3n2CC)sc2cc(S(=O)(=O)O)ccc21
The conditions noted are these: pH 4.0, 100 mM citrate-phosphate, 30 °C, air-saturated, µ and ± signs lost in the table text (header reads M), apparent Km, also measured at pH 3, 5, 6. This is another data set of the same source.

On to “BaL (Botrytis aclada laccase) (Botrytis aclada; L536M)”, for which the Km is listed as 19.3 ± 1.0 µM in data set [1] and 80.8 ± 2.7 µM in data set [2].

B1: BaL (Botrytis aclada laccase) (Botrytis aclada) (protein)
chain: SCANSATSRSCWGEYSIDTNWYDVTPTGVTREYWLSVENSTITPDGYTRSAMTFNGTVPGPAIIADWGDNLIIHVTNNLEHNGTSIHWHGIRQLGSLEYDGVPGVTQCPIAPGDTLTYKFQVTQYGTTWYHSHFSLQYGDGLFGPLIINGPATADYDEDVGVIFLQDWAHESVFEIWDTARLGAPPALENTLMNGTNTFDCSASTDPNCVGGGKKFELTFVEGTKYRLRLINVGIDSHFEFAIDNHTLTVIANDLVPIVPYTTDTLLIGIGQRYDVIVEANAAADNYWIRGNWGTTCSTNNEAANATGILRYDSSSIANPTSVGTTPRGTCEDEPVASLVPHLALDVGGYSLVDEQVSSAFTNYFTWTINSSSLLLDWSSPTTLKIFNNETIFPTEYNVVALEQTNANEEWVVYVIEDLTGFGIWHPIHLHGHDFFIVAQETDVFNSDESPAKFNLVNPPRRDVAALPGNGYLAIAFKLDNPGSWLLHCHIAWHASEGLAMQFVESQSSIAVKMTDTAIFEDTCANWNAYTPTQLFAEDDSGI
notes: full-length cDNA expressed in secreted form in Pichia pastoris X33; 543 residues; kinetics on glycosylated enzyme
Regarding B1, the Km in data set [3] was 8.3 ± 0.7 µM; in data set [4] it was 14.0 ± 1.0 µM.
